Our source for the Cynomolgus EpCAM/Control and ELISA absorbance values is patent US20240228656A1.

This test addresses cynomolgus EpCAM protein (cynomolgus). Briefly: colorimetric ELISA. Background: ELISA stands for enzyme-linked immunosorbent assay.

Chain of cynomolgus EpCAM protein (cynomolgus) (Q1WER1 27-265 limits assumed): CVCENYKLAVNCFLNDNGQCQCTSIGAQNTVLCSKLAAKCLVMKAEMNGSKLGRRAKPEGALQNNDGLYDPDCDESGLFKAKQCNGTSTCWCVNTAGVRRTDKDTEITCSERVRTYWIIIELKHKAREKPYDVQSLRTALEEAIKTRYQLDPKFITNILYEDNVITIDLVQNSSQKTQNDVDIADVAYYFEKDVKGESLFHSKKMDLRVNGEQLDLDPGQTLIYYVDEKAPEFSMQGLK

B1: EPL159 (VHH)
VHH: QVQLQESGGGLVQAGGSLRLSCAASGFAFGNHWMYWYRQAPGRGRELVASISSGGSTNYVDSVKGRFTISRDNARNTVYLQMYSLKPEDTAVYYCGTSDNWGQGTQVTVSS
Take B1: the Cynomolgus EpCAM/Control was found to be 2 and the ELISA absorbance was found to be 0.2 absorbance.

B2: EPL145 (VHH)
VHH: QVQLQESGGGLVQAGGSLRLSCAASGFIFRAASMGWFRQSPGNERELVATVSSGGFTNYADSVKGRFTISRDNAKNTVYLQMNSLKPEDTAVYFCGATFVRSDGHHTIYGQGTQVTVSS
B2: the Cynomolgus EpCAM/Control came out at 2 and the ELISA absorbance is 0.4 absorbance.
